Laboratory results from PMC11022072 (2024).

Experiments:
Assay in all cases: BLI
LbpB C-lobe ΔCaHD = biological target: LbpB C-lobe ΔCaHD
LbpB C-lobe = biological target: LbpB C-lobe
FL LbpB ΔCaHD = biological target: FL LbpB ΔCaHD

B1: bovine lactoferrin (Lf) (natural protein)
chain: APRKNVRWCTISQPEWFKCRRWQWRMKKLGAPSITCVRRAFALECIRAIAEKKADAVTLDGGMVFEAGRDPYKLRPVAAEIYGTKESPQTHYYAVAVVKKGSNFQLDQLQGRKSCHTGLGRSAGWIIPMGILRPYLSWTESLEPLQGAVAKFFSASCVPCIDRQAYPNLCQLCKGEGENQCACSSREPYFGYSGAFKCLQDGAGDVAFVKETTVFENLPEKADRDQYELLCLNNSRAPVDAFKECHLAQVPSHAVVARSVDGKEDLIWKLLSKAQEKFGKNKSRSFQLFGSPPGQRDLLFKDSALGFLRIPSKVDSALYLGSRYLTTLKNLRETAEEVKARYTRVVWCAVGPEEQKKCQQWSQQSGQNVTCATASTTDDCIVLVLKGEADALNLDGGYIYTAGKCGLVPVLAENRKSSKHSSLDCVLRPTEGYLAVAVVKKANEGLTWNSLKDKKSCHTAVDRTAGWNIPMGLIVNQTGSCAFDEFFSQSCAPGADPKSRLCALCAGDDQGLDKCVPNSKEKYYGYTGAFRCLAEDVGDVAFVKNDTVWENTNGESTADWAKNLNREDFRLLCLDGTRKPVTEAQSCHLAVAPNHAVVSRSDRAAHVKQVLLHQQALFGKNGKNCPDKFCLFKSETKNLLFNDNTECLAKLGGRPTYEEYLGTEYVTAIANLKKCSTSPLLEACAFLTR
LbpB C-lobe ΔCaHD
  Kd: 2.9 µM
LbpB C-lobe
  Kd: 0.2 µM
FL LbpB ΔCaHD
  Kd: 1.28 µM
